Measurements from IntAct's records for PubMed 19338389.

B1: Transcription factor p65 (Mus musculus), Q04207 (parent)
chain: MDDLFPLIFPSEPAQASGPYVEIIEQPKQRGMRFRYKCEGRSAGSIPGERSTDTTKTHPTIKINGYTGPGTVRISLVTKDPPHRPHPHELVGKDCRDGYYEADLCPDRSIHSFQNLGIQCVKKRDLEQAISQRIQTNNNPFHVPIEEQRGDYDLNAVRLCFQVTVRDPAGRPLLLTPVLSHPIFDNRAPNTAELKICRVNRNSGSCLGGDEIFLLCDKVQKEDIEVYFTGPGWEARGSFSQADVHRQVAIVFRTPPYADPSLQAPVRVSMQLRRPSDRELSEPMEFQYLPDTDDRHRIEEKRKRTYETFKSIMKKSPFNGPTEPRPPTRRIAVPTRNSTSVPKPAPQPYTFPASLSTINFDEFSPMLLPSGQISNQALALAPSSAPVLAQTMVPSSAMVPLAQPPAPAPVLTPGPPQSLSAPVPKSTQAGEGTLSEALLHLQFDADEDLGALLGNSTDPGVFTDLASVDNSEFQQLLNQGVSMSHSTAEPMLMEYPEAITRLVTGSQRPPDPAPTPLGTSGLPNGLSGDEDFSSIADMDFSALLSQISS
partner: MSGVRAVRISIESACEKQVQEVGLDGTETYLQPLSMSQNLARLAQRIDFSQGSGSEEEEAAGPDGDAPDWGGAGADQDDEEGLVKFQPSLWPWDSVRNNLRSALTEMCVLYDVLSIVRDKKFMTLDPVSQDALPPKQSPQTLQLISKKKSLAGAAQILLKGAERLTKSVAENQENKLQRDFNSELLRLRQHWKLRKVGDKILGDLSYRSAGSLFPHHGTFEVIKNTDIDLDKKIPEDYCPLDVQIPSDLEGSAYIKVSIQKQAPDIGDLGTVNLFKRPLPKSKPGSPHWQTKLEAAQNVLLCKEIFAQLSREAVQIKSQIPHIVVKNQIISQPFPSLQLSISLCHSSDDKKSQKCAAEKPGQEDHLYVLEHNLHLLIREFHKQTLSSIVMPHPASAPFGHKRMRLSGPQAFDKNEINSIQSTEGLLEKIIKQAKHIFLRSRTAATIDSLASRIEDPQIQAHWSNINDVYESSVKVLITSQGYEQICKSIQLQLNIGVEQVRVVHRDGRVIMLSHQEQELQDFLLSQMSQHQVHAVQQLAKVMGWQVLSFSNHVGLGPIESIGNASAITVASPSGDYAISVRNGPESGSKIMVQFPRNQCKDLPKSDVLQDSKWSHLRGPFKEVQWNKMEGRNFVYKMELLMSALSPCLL

Variants of: B1
Settings: with med17_mouse Med17, Q8VCD5

effect of a mutation on the interaction	Variant
disrupting interaction	D539A;F540A
disrupting interaction	I535A;D537A;M538S;D539A;F540A;S541A
disrupting interaction	G528A;D529A;E530A;D531S;F532A;S533A;S534A
